Measurements: patent publication US20200283741

T1: HbC1c-type αF8P
T1 chain: VHLTPKEK

T2: HbS1c-type αF8P
T2 chain: VHLTPVEK

T3: HbA1c-type αF8P (α-fructosyl-valyl-histidyl-leucyl-threonyl-prolyl-glutamyl-glutamyl-lysine)
T3 chain: VHLTPEEK

B1: En42FX R108L (protein)
chain: MAPRANTKIIVVGGGGTMGSSTALHLLRAGYTPSNITVLDTYPIPSAQSAGYDLNKIFGISGANKHDLQLSLEAFDMWKNDPLFKPFFHNVGQMDVSSTEEGIKRLRLRYQSLLRAGIGLEKTNFLLESEDEILAKAPHFTREQIKGWKGLFCGDGGWLAAAKAINAIGQFLKEQGVKFGFGEAGTFKKPLFADADEKTCIGVETVDGTKYYADKVVLAAGAWSSTLVDLEEQCVSKAWVFAHIQLTPAEAAAYKNTPVIYDGDYGFFIEPDENGIIKVCDEFPGFTHFKMHQPYGSPVPKLISVPRSHAKHPTDTYPHASEVTIKKAINRFLPRFNDKELFNRAMCWCTDTADSNLLVCEHPRWKGFYLATGDSGHSFKLLPNIGKHVVELLEGRLESVFKDAWRWRPGSGDALKSRRAAPAKDLADMPGWRNEAKM
B2: En42FX R108Q (protein)
chain: MAPRANTKIIVVGGGGTMGSSTALHLLRAGYTPSNITVLDTYPIPSAQSAGYDLNKIFGISGANKHDLQLSLEAFDMWKNDPLFKPFFHNVGQMDVSSTEEGIKRLRQRYQSLLRAGIGLEKTNFLLESEDEILAKAPHFTREQIKGWKGLFCGDGGWLAAAKAINAIGQFLKEQGVKFGFGEAGTFKKPLFADADEKTCIGVETVDGTKYYADKVVLAAGAWSSTLVDLEEQCVSKAWVFAHIQLTPAEAAAYKNTPVIYDGDYGFFIEPDENGIIKVCDEFPGFTHFKMHQPYGSPVPKLISVPRSHAKHPTDTYPHASEVTIKKAINRFLPRFNDKELFNRAMCWCTDTADSNLLVCEHPRWKGFYLATGDSGHSFKLLPNIGKHVVELLEGRLESVFKDAWRWRPGSGDALKSRRAAPAKDLADMPGWRNEAKM
B3: En42FX R108D (protein)
chain: MAPRANTKIIVVGGGGTMGSSTALHLLRAGYTPSNITVLDTYPIPSAQSAGYDLNKIFGISGANKHDLQLSLEAFDMWKNDPLFKPFFHNVGQMDVSSTEEGIKRLRDRYQSLLRAGIGLEKTNFLLESEDEILAKAPHFTREQIKGWKGLFCGDGGWLAAAKAINAIGQFLKEQGVKFGFGEAGTFKKPLFADADEKTCIGVETVDGTKYYADKVVLAAGAWSSTLVDLEEQCVSKAWVFAHIQLTPAEAAAYKNTPVIYDGDYGFFIEPDENGIIKVCDEFPGFTHFKMHQPYGSPVPKLISVPRSHAKHPTDTYPHASEVTIKKAINRFLPRFNDKELFNRAMCWCTDTADSNLLVCEHPRWKGFYLATGDSGHSFKLLPNIGKHVVELLEGRLESVFKDAWRWRPGSGDALKSRRAAPAKDLADMPGWRNEAKM
B4: En42FX R108E (protein)
chain: MAPRANTKIIVVGGGGTMGSSTALHLLRAGYTPSNITVLDTYPIPSAQSAGYDLNKIFGISGANKHDLQLSLEAFDMWKNDPLFKPFFHNVGQMDVSSTEEGIKRLRERYQSLLRAGIGLEKTNFLLESEDEILAKAPHFTREQIKGWKGLFCGDGGWLAAAKAINAIGQFLKEQGVKFGFGEAGTFKKPLFADADEKTCIGVETVDGTKYYADKVVLAAGAWSSTLVDLEEQCVSKAWVFAHIQLTPAEAAAYKNTPVIYDGDYGFFIEPDENGIIKVCDEFPGFTHFKMHQPYGSPVPKLISVPRSHAKHPTDTYPHASEVTIKKAINRFLPRFNDKELFNRAMCWCTDTADSNLLVCEHPRWKGFYLATGDSGHSFKLLPNIGKHVVELLEGRLESVFKDAWRWRPGSGDALKSRRAAPAKDLADMPGWRNEAKM
B5: CFP-T7-H40-3M (protein)
chain: MTSNRADTRVIVVGGGGTIGSSTALHLVRSGYAPANITVLDTFEIPSAQSAGHDLNKIMGIDHGNKVNLQMSLEARQMWKEDELFQPFFHNTGRMDCESTPKGIEKLKKYYQKLHDAGAGLEKTHAWLDNEDEILSKMPLLQRDQIQGWKAIWSQDGGWLAAAKAINAIGQFLKERGVKFGFGGAGSFKQPLFDDEGTTCIGVETADGTKYYADKVVLAAGAWSPTLVDLEDQCCSKAWVYAHIQLTPEEAAEYKGVPVVYNSEYGFFFEPDEFGVIKVCNEFPGFSRFKEHQPYGAPSPKRISVPRSHAKHPTDTYPDASEVSIKKAIATFLPRFQDKELFNRALCWCTDTADSTLLMCEHPKWKNFILATGDSGHSFKILPNVGKYVVELIEGRLPEEMAYQWRWRPGGDALKSRRAAPPKDLADMPGWKHDPKL
B6: En42FX S112D (protein)
chain: MAPRANTKIIVVGGGGTMGSSTALHLLRAGYTPSNITVLDTYPIPSAQSAGYDLNKIFGISGANKHDLQLSLEAFDMWKNDPLFKPFFHNVGQMDVSSTEEGIKRLRRRYQDLLRAGIGLEKTNFLLESEDEILAKAPHFTREQIKGWKGLFCGDGGWLAAAKAINAIGQFLKEQGVKFGFGEAGTFKKPLFADADEKTCIGVETVDGTKYYADKVVLAAGAWSSTLVDLEEQCVSKAWVFAHIQLTPAEAAAYKNTPVIYDGDYGFFIEPDENGIIKVCDEFPGFTHFKMHQPYGSPVPKLISVPRSHAKHPTDTYPHASEVTIKKAINRFLPRFNDKELFNRAMCWCTDTADSNLLVCEHPRWKGFYLATGDSGHSFKLLPNIGKHVVELLEGRLESVFKDAWRWRPGSGDALKSRRAAPAKDLADMPGWRNEAKM
B7: CFP-T7-H40-3M K102A (protein)
chain: MTSNRADTRVIVVGGGGTIGSSTALHLVRSGYAPANITVLDTFEIPSAQSAGHDLNKIMGIDHGNKVNLQMSLEARQMWKEDELFQPFFHNTGRMDCESTPAGIEKLKKYYQKLHDAGAGLEKTHAWLDNEDEILSKMPLLQRDQIQGWKAIWSQDGGWLAAAKAINAIGQFLKERGVKFGFGGAGSFKQPLFDDEGTTCIGVETADGTKYYADKVVLAAGAWSPTLVDLEDQCCSKAWVYAHIQLTPEEAAEYKGVPVVYNSEYGFFFEPDEFGVIKVCNEFPGFSRFKEHQPYGAPSPKRISVPRSHAKHPTDTYPDASEVSIKKAIATFLPRFQDKELFNRALCWCTDTADSTLLMCEHPKWKNFILATGDSGHSFKILPNVGKYVVELIEGRLPEEMAYQWRWRPGGDALKSRRAAPPKDLADMPGWKHDPKL
B8: CFP-T7-H40-3M K102E (protein)
chain: MTSNRADTRVIVVGGGGTIGSSTALHLVRSGYAPANITVLDTFEIPSAQSAGHDLNKIMGIDHGNKVNLQMSLEARQMWKEDELFQPFFHNTGRMDCESTPEGIEKLKKYYQKLHDAGAGLEKTHAWLDNEDEILSKMPLLQRDQIQGWKAIWSQDGGWLAAAKAINAIGQFLKERGVKFGFGGAGSFKQPLFDDEGTTCIGVETADGTKYYADKVVLAAGAWSPTLVDLEDQCCSKAWVYAHIQLTPEEAAEYKGVPVVYNSEYGFFFEPDEFGVIKVCNEFPGFSRFKEHQPYGAPSPKRISVPRSHAKHPTDTYPDASEVSIKKAIATFLPRFQDKELFNRALCWCTDTADSTLLMCEHPKWKNFILATGDSGHSFKILPNVGKYVVELIEGRLPEEMAYQWRWRPGGDALKSRRAAPPKDLADMPGWKHDPKL

Experiments:
HbC1c-type αF8P = molecular target: T1, HbC1c-type αF8P
HbS1c-type αF8P = molecular target: T2, HbS1c-type αF8P
[1] = molecular target: T3, HbA1c-type αF8P …

Protein | relative activity on substrate (activity on HbA1c-type αF8P = 100%) (HbC1c-type αF8P) | relative activity (HbS1c/HbA1c), fold over En42FX before modification (HbS1c-type αF8P) | relative activity on substrate (activity on HbA1c-type αF8P = 100%) (HbS1c-type αF8P) | relative activity on substrate (reference, designated as 100%) [1] | relative activity (HbS1c/HbA1c), fold over H40-3M before modification (HbS1c-type αF8P)
B1 | 13% | improved by about 1.4 to 3.7 times | 150% | 100% | –
B2 | 15% | – | 67% | 100% | –
B3 | 23% | – | 95% | 100% | –
B4 | 31% | – | 100% | 100% | –
B5 | 11% | – | 39% | 100% | –
B6 | 16% | – | 63% | 100% | –
B7 | – | – | 77% | 100% | about 1.97 times greater than that prior to modification
B8 | – | – | 68% | 100% | about 1.74 times greater than that prior to modification
